In the assay the target is SARS-CoV-2 RBD, His6-tagged, for biolayer interferometry (SARS-CoV-2) (UniProt P0DTC2). Briefly: BLI.

For one substance, Kd results are on record in PMC8064889.

Take CR3022 Fab: the Kd (in general, a measure of binding affinity in units of concentration) worked out at 46.3 nM.
